The values below come from publication doi:10.1101/2025.11.12.688043 (bioRxiv, 2025).

This data set deals with the molecule itself. Kind of data set: cryo-EM structure.

B1: Saccharomyces cerevisiae TOK1, wild type (natural protein, UniProt P40310 1-691, looked up)
chain: MTRFMNSFAKQTLGYGNMATVEQESSAQAVDSHSNNTPKQAKGVLAEELKDALRFRDERVSIINAEPSSTLFVFWFVVSCYFPVITACLGPVANTISIACVVEKWRSLKNNSVVTNPRSNDTDVLMNQVKTVFDPPGIFAVNIISLVLGFTSNIILMLHFSKKLTYLKSQLINITGWTIAGGMLLVDVIVCSLNDMPSIYSKTIGFWFACISSGLYLVCTIILTIHFIGYKLGKYPPTFNLLPNERSIMAYTVLLSLWLIWGAGMFSGLLHITYGNALYFCTVSLLTVGLGDILPKSVGAKIMVLIFSLSGVVLMGLIVFMTRSIIQKSSGPIFFFHRVEKGRSKSWKHYMDSSKNLSEREAFDLMKCIRQTASRKQHWFSLSVTIAIFMAFWLLGALVFKFAENWSYFNCIYFCFLCLLTIGYGDYAPRTGAGRAFFVIWALGAVPLMGAILSTVGDLLFDISTSLDIKIGESFNNKVKSIVFNGRQRALSFMVNTGEIFEESDTADGDLEENTTSSQSSQISEFNDNNSEENDSGVTSPPASLQESFSSLSKASSPEGILPLEYVSSAEYALQDSGTCNLRNLQELLKAVKKLHRICLADKDYTLSFSDWSYIHKLHLRNITDIEEYTRGPEFWISPDTPLKFPLNEPHFAFMMLFKNIEELVGNLVEDEELYKVISKRKFLGEHRKTL
For B1, the “stoichiometry N” value was 2.
